Test results taken from article PMC7135739.
Read-outs that look alike come from different tables or passages of the source.

How the values were obtained:
Test in all cases: microtiter plate binding assay
[1] = target: Bovine cardiac myosin (bovine) (UniProt Q9BE39)
[2] = target: Rabbit skeletal muscle myosin (rabbit) (UniProt Q28641)
[3] = target: Bovine cardiac myosin (bovine) (UniProt Q9BE39); remark: listed apart in the source

UniProt Q28641, sequence (Q28641 whole entry, chain 1 of 3): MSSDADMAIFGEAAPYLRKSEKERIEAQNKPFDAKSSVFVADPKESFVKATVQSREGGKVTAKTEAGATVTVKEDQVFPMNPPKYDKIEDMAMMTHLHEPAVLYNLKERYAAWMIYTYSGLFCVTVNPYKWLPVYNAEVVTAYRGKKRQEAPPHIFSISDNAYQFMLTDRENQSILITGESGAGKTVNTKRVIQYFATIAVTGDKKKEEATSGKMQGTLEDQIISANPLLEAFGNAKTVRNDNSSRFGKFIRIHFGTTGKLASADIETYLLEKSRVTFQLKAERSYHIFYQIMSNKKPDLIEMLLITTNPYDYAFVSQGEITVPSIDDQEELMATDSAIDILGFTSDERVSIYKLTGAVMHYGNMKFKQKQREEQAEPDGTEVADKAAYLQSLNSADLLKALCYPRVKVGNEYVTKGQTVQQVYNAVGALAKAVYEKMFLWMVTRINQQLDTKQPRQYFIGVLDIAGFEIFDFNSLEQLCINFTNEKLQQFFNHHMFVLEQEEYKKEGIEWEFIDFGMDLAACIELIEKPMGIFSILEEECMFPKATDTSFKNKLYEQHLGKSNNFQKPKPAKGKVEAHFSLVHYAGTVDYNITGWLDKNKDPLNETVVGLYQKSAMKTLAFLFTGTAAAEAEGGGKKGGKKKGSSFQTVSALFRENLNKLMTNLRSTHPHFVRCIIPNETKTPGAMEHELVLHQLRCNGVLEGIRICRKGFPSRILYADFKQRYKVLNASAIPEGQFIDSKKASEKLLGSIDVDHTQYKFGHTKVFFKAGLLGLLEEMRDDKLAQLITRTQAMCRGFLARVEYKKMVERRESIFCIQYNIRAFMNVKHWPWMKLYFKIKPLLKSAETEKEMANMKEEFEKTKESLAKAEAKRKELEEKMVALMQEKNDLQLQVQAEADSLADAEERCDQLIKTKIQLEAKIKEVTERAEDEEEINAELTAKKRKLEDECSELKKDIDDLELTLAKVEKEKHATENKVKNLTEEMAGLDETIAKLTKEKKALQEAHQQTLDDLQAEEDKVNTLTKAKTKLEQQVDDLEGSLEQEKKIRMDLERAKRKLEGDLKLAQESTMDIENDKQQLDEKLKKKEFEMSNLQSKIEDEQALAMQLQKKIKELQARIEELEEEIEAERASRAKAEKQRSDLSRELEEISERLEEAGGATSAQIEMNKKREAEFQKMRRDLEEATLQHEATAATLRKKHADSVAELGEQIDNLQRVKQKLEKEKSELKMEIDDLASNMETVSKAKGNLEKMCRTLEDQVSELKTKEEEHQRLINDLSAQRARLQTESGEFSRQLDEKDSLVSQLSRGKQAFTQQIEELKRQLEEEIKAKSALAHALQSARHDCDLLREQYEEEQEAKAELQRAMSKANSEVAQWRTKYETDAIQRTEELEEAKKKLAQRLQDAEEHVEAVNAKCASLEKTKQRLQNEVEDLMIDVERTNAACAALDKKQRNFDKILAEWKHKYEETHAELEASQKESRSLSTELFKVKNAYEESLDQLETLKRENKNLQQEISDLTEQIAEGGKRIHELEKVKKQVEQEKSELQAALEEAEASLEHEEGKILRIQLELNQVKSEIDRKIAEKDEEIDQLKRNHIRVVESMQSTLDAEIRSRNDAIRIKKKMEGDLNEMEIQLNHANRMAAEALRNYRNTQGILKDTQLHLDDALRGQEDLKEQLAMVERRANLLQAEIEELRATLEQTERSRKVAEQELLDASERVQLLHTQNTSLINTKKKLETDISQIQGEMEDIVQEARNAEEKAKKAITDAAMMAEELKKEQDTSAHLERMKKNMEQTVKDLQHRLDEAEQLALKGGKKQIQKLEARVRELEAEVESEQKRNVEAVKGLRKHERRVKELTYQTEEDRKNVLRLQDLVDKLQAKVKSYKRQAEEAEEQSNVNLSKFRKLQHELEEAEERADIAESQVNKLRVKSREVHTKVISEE
UniProt Q28641, sequence (P02602 2-192, chain 2 of 3, further chain): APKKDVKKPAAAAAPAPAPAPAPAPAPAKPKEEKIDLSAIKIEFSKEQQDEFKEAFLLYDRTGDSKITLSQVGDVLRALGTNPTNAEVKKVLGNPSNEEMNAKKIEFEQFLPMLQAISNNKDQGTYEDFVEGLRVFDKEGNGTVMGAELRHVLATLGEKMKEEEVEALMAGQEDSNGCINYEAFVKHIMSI
UniProt Q28641, sequence (P02608 2-170, chain 3 of 3, further chain): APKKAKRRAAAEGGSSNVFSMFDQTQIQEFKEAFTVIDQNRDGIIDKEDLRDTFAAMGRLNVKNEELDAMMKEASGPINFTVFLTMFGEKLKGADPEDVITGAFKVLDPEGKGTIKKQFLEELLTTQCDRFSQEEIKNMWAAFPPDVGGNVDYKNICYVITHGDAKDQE

Kd [1]: 108 nM
Kd [2]: 80.4 nM
Kd [3]: 21 nM
Substance: Human factor Xa (enzyme)
